The supplement of paper PMC12764529
± gives the half width of the 95% confidence interval.

Tests used:
[1] = folding stability dG unfold from trypsin proteolysis; higher = more stable
Procedure, shortened: (§1)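 Bayesian fitting of sequencing counts gave K50 for each design. Unfolding free energy followed by setting this against a sequence-predicted unfolded-state K50 and a shared folded-state K50, either per protease or with trypsin and chymotrypsin combined. The designs, under 80 residues and lacking cysteine, were digested in a PA-tagged cDNA display format at 11 threefold-diluted protease concentrations and without protease, and only those with AlphaFold2 dimer inter-PAE above 15 were kept.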

[2] = folding stability dG unfold from chymotrypsin proteolysis; higher = more stable
Procedure, shortened: as §1

[3] = folding stability dG unfold (combined trypsin and chymotrypsin); higher = more stable
Procedure, shortened: as §1

Row | Sequence | folding stability dG unfold [1] [kcal/mol] | folding stability dG unfold [2] [kcal/mol] | folding stability dG unfold [3] [kcal/mol]
1 | SAGGSAGGSAGGSSKVIEVNGYKITVTDNSVEIYNKKTGKKITVNADNPEVQELLKKLLSAGGSAGGSAGGS [r4_353_TrROS_Hall] | 3.6 ± 0.089 | 4.254 ± 0.037 | 4.07 ± 0.094
2 | SAGGSAGDLELIGVFPFTLPDGRRITVPIFRDPSTGERYLFAETEGEEEDLTPAAIETALAVLERESAGGSA [r15_529_TrMRF] | 1.87 ± 0.051 | 2.09 ± 0.037 | 2.05 ± 0.084
3 | SAGGSAGGSAAKVISVNPETGEVVVEYPDGSVGYFKVKGGVVEEVRSSPVLPVPEDDPLFTSAGGSAGGSAG [r3_406_TrMRF] | 1.05 ± 0.032 | 1.2 ± 0.088 | 1.15 ± 0.077
4 | SAGGSAGGSAGGKTYTLTFKAKIEVSEDDVVVITPPNGKKLVVPKENVKVHPDGTVTVTGSAGGSAGGSAGG [r7_684_TrMRF] | 1.28 ± 0.097 | 1.27 ± 0.2 | 1.19 ± 0.2
5 | SAGGSAGGSIEIFKSPEGWYVRIWFPGKPQVIPIDDAEDLKNFEIPIPNGRPIKVEILPPKDLSAGGSAGGS [r12_730_TrROS] | 1.66 ± 0.047 | 2.32 ± 0.032 | 2.13 ± 0.059
6 | SAGGSAGGTSVADELEEEFKAKGYPAEVTVTKLPDDTTLVTVTVTDPKTGKSTTTTVTVSPAEASAGGSAGG [r6_692_JUSTAS] | 1.02 ± 0.076 | 1.01 ± 0.12 | 0.861 ± 0.16
7 | SAMVLKVEEEPFPPNAKREVKEIRKDPNSDNLFKVKIELEKSPDPSVTSAKVITIPPDGSKKVEEKVLESAG [r14_10_JUSTAS] | 0.514 ± 0.27 | 0.47 ± 0.19 | 0.508 ± 0.59
8 | SAGGSPISLEVSTSTLPDGTLRVTTTATSPDSSRSYTVTLDFPPSQPEEIPARAAAEAAAIAADPAVASAGG [r13_968_JUSTAS] | -0.552 ± 0.19 | 1.35 ± 0.058 | 0.907 ± 0.086
9 | SAGGSAGGSAGGKHKIPITNVHVSPPNGYIHVTIRFPGDGKPIEIHFPVPPGEPITIEISAGGSAGGSAGGS [r10_940_TrROS] | 2.28 ± 0.14 | 3.53 ± 0.27 | 2.74 ± 0.2
10 | SAGGSPDIKFNEVKVELPTAETEAEFEKNTYKVEVPAPPELDITTTTTLTTSSGSTTTTTSTSPLELPSAGG [r13_191_JUSTAS] | 0.0505 ± 0.06 | -1.11 ± 0.79 | -0.304 ± 0.11
11 | SAGGSAGGSAKVVVDEVEVEVFKNEDGEEVLRVRFKKTGEEVEIPLEDLEKLELPPGAVVEPSAGGSAGGSA [r18_288_TrROS_Hall] | 0.246 ± 0.035 | 1.84 ± 0.05 | 1.41 ± 0.07
12 | SAGGASTVEYEITLPLDPSGSVDPDTIRAAAEAIAAADPDFVDHRIEEITITRLPDGTVRFTVTISVPSAGG [r13_462_JUSTAS] | 2.66 ± 0.11 | 2.46 ± 0.049 | 2.53 ± 0.092
13 | SAGGSAGGSAMKIKIEVVKNKNGYYYLKVEIEVNGKKIEITIKVPKNEKVSIEELLKKILKKSAGGSAGGSA [r18_111_TrROS_Hall] | 2.78 ± 0.12 | 4.55 ± 0.12 | 4.07 ± 0.16
14 | SAGGSAGGSAAEVEVETLELEIDGVKITVTRVRNADGELLYFARIEVRPAPPPPPVSLEDLSAGGSAGGSAG [r3_68_TrROS_Hall] | 3.02 ± 0.093 | 3.25 ± 0.074 | 3.23 ± 0.12
15 | SAGGSAGGSVYSAKSPDGYTITISNGGKPITLPVSDPAKAASLTLKTPDGKTATVTIVPASLASAGGSAGGS [r12_730_JUSTAS] | -0.229 ± 0.12 | -0.295 ± 0.23 | -0.216 ± 0.17
16 | SAGPWIMIPLPPELREIAKKAGMSPDDVETVEIPLKFGDREVKIEVEVMPDDGWIMVRFKSNGKEFMIPSAG [r5_545_TrROS] | 1.55 ± 0.1 | 3.22 ± 0.13 | 2.38 ± 0.29
17 | SAGGSAGGSASLSPDEEVEITDPANGTKYKVTKLPDGTVLLENPETGETYVRTDSNDWKLTSAGGSAGGSAG [r3_96_JUSTAS] | 0.88 ± 0.04 | 0.88 ± 0.18 | 0.932 ± 0.15
